The text below walks through data of PMC8003079, “Virus-Like Particles Produced Using the Brome Mosaic Virus Recombinant Capsid Protein Expressed in a Bacterial System” (International Journal of Molecular Sciences, 2021).

Data set [1] deals with the molecule itself. Description: MST; labelled rCP (RED-NHS 647, 50 nM) titrated with unlabelled rCP (from 15 uM); 50 mM Tris pH 7.5, 5 mM MgCl2, 600 mM NaCl; step of self-association not stated.
Data set [2] deals with the molecule itself. Description: MST; labelled rCP (RED-NHS 647, 50 nM) titrated with unlabelled rCP (from 15 uM); 50 mM Tris pH 7.5, 5 mM MgCl2, 300 mM NaCl; step of self-association not stated.
Data set [3] concerns the molecule itself. Description: MST; labelled rCP (RED-NHS 647, 50 nM) titrated with unlabelled rCP (from 15 uM); 50 mM Tris pH 7.5, 5 mM MgCl2, 150 mM NaCl; step of self-association not stated.
Data set [4] deals with the molecule itself. Description: cross-linking; 5 mM DSS, rCP in MST buffer pH 7.5; 5, 10, 15 and 30 min; SDS-PAGE.
Data set [5] deals with the molecule itself. Description: MST; labelled rCP (RED-NHS 647, 50 nM) titrated with unlabelled rCP (from 15 uM); 50 mM Tris pH 6.8, 5 mM MgCl2, 150 mM NaCl; step of self-association not stated.
Data set [6] concerns the molecule itself. Description: MST; labelled rCP (RED-NHS 647, 50 nM) titrated with unlabelled rCP (from 15 uM); 50 mM Tris pH 8.5, 5 mM MgCl2, 150 mM NaCl; step of self-association not stated.
Data set [7] deals with the molecule itself. Description: MST; labelled rCP (RED-NHS 647, 50 nM) titrated with unlabelled rCP (from 15 uM); 50 mM Tris pH 7.5, 5 mM MgCl2, 1000 mM NaCl; step of self-association not stated.
Data set [8] concerns the molecule itself. Description: cryo-TEM imaging; empty VLPs assembled without cargo by two-step dialysis; vitrified samples, 120 kV.

Where a chain is given by its changes, count along the chain named. Names and notes keep the numbering of the source.

B1: recombinant brome mosaic virus (BMV) capsid protein (natural protein)
chain: MSTSGTGKMTRAQRRAAARRNRWTARVQPVIVEPLAAGQGKAIKAIAGYSISKWEASSDAITAKATNAMSITLPHELSSEKNKELKVGRVLLWLGLLPSVAGRIKACVAEKQAQAEAAFQVALAVADSSKEVVAAMYTDAFRGATLGDLLNLQIYLYASEAVPAKAVVVHLEVEHVRPTFDDFFTPVYR
notes: brome mosaic virus capsid (coat) protein; In the MST assay one copy was labelled with Monolith NT Protein Labeling Kit RED-NHS 647 and titrated with unlabelled rCP; also called rCP; CP; source: E. coli Rosetta 2(DE3)pLysS, purified (Ni-NTA, TEV digestion, second Ni-NTA); not shown: His tag (inferred from Ni-NTA purification; vector pMCSG48), N-terminal, cleaved
As for B1, the Kd – broadly, the free concentration of one partner at which half of the binding sites on the other are occupied at equilibrium, for simple one-to-one binding – in data set [1] came out at 72 nM; in data set [2], 62 nM; in data set [3] it was 35 nM; in data set [5] it was 6.8 nM; in data set [6] it was 175 nM; in data set [7], 111 nM. For the same protein, the stoichiometry N – broadly, a count of units in the complex or per binding partner – in data set [4] was found to be 2.

B2: mutated BMV capsid protein (L123D and F183T) (natural protein, brome mosaic virus)
chain: B1 chain with L123D, F183T
notes: brome mosaic virus capsid (coat) protein with two designed mutations; also called rCP mutant; mutated rCP; source: E. coli Rosetta 2(DE3)pLysS, purified as the wild-type BMV CP (Ni-NTA, TEV digestion, second Ni-NTA); not shown: His tag (inferred from Ni-NTA purification; vector pMCSG48), N-terminal, cleaved
For B2, in data set [8], the binding result is listed as “binds”.
